Publication PMC11576762

Molecular target: human TPC1 with C-terminal mVenus (human) (UniProt Q9ULQ1)
Assay: FRET or BRET; Two-hybrid FRET in live HEK293 cells; donor mTq2 constructs (0.7 µg DNA), acceptor mVenus constructs (1.5 µg DNA); confocal imaging, regions of interest around mVenus-positive lysosomes; maximum FRET efficiency from two-hybrid curves; no apilimod

mTq2-Rab5 (from UniProt P20339 1-215) (natural protein)
FRET efficiency: 29%
